The DeepSol protein solubility set

Experiment: soluble on expression in E. coli; label from the status in PepcDB or PDB records

Sequence	soluble on expression in E. coli
MSLIKLRPHHIMCFQGYEGKGYSQDFIDNMDNIYRDLKEKDNLKIKIVFSTDDVCGSCPNKISDNNCGCNEKVMAIDNKVIRVLKLKQKIYTYNELVNKLRLNINEGVMKDICGQCVWYENSKCKTSILSLEGHHHHHH	soluble
MSLILESLVTTLDEQGRINLAPLGPIVLPPQSPGGLPQFLLRPYEGSTTCDNLLASGNAVIHVIDDALLIAKTAIGKVDASDLVVPIPGLEDTHVRLKRCHRWFAVRVTQRAGTPPRHELTARCLASGLVDPFFGFNRAKHAVIEAAVAATRLHLLPPEEIEEELERARIAIEKTGGEPEREALQLIRRHVRESSISEGHHHHHH	soluble
MSLINARLIAFEDQWVPALNAPLKQAILADSQDAQLAAAMTYSVLAGGKRLRPLLTVATMQSLGVTFVPERHWRPVMALELLHTYSLIHDDLPAMDNDALRRGEPTNHVKFGAGMATLAGDGLLTLAFQWLTATDLPATMQAALVQALATAAGPSGMVAGQAKDIQSEHVNLPLSQLRVLHKEKTGALLHYAVQAGLILGQAPEAQWPAYLQFADAFGLAFQIYDDILDVVSSPAEMGKATQKDADEAKNTYPGKLGLIGANQALIDTIHSGQAALQGLPTSTQRDDLAAFFSYFDTERVNEGHHHHHH	soluble
MSLINKEILPFTAQAFDPKKDQFKEVTQEDLKGSWSVVCFYPADFSFVCPTELEDLQNQYEELQKLGVNVFSVSTDTHFVHKAWHDHSDAISKITYTMIGDPSQTITRNFDVLDEATGLAQRGTFIIDPDGVVQASEINADGIGRDASTLAHKIKAAQYVRKNPGEVCPAKWEEGAKTLQPGLDLVGKI	not soluble
MSLIPSSGPSAKKVVSLGQQSEAQIPEVELIDVNHAVAQSLYKAQVNQSFTQFGDGYASTGTLNIGDVLDIMIWEAPPAVLFGGGLSSMGSGSAQQTKLPEQLVTARGTVSVPFVGDISVVGKTPGQVQEIIKGRLKKMANQPQVMVRLVQNNAANVSVIRAGNSVRMPLTAAGERVLDAVAAVGGSTANVQDTNVQLTRGNVVRTVALEDLVANPRQNILLRRGDVVTMITNPYTFTSMGAVGRTQEIGFSARGLSLSEAIGRMGGLQDRRSDARGVFVFRYTPLVELPAERQDKWIRQGYGSEAEIPTVYRVNMADAHSLFSMQRFPVKNKDVLYVSNAPLAEVQKFLSFVFSPVTSGANSINNLTNEGHHHHHH	soluble
MSLIRFRFVDDHRTDYSVKRMCTVLGLNRSSYYKWKASSAQRHRRLVDDAILGAKVQAIFDDKKQLYGAKRIAAELTFNDAYSSTGPVNHKRIARIMRKLQLRGYTKKRKVTTTQRERHRFIFADLVKRNFTAPAANRILVGDITYLPIADGSNMYLASVIDCYSRMLVGFAIADHMRTDLVEEALEHARRTRGSLSGAIFHSDHGSVYTSSQFQAVCRRLNVTQSMGAVGSSADNSLAESFNAALKREVLKDQKVFSNQLVCRRDVFAWCARYNTTRRHSWCKYLTPIEYESHASEGHHHHHH	not soluble
MSLIRKREFDMPIKIPDTLPAFETLVHEGVRVMTETAAIRQDIRPLQIGLLNLMPNKIKTEIQMARLVGASPLQVELSLIRIGGHRAKNTPEEHLLSFYQTWEEVRHRKFDGFIITGAPIELLDYEDVTYWNEMQQIFEWTQTNVHSTLNVCWGAMAAIYHFHGVPKYELKEKAFGVYRHRNLSPSSIYLNGFSDDFQVPVSRWTEVRRADIEKHPELEILMESDEMGVCLAHEKAGNRLYMFNHVEYDSTSLADEYFRDVNSGVPIKLPHDYFPHNDPELAPLNRWRSHAHLFFGNWINEIYQTTPYDPQAIGKLAAEGHHHHHH	soluble
MSLIYHRIAVNVPLSDGLLTYSHSDPLPPGTRVLVPFRNKTVVGMVWETDIAPDMDMARILSVQTAFVEEKPLPESWRDLLAFTSRYYHYPTGQAVFAALPQGLKETRAVEMPQPPLFYALNEAGRAQTPPPARFNKKAALWDALLSGGMTMAALKQVNAQAAKLIEDWAEQGWIETTEAAKPVLRSYHGQASHSEFVLNADQQQASDEIQTAFGSFQPFLLYGITGSGKTEVYFDAMAKVLAQGRQVLFLLPEINLTPQLLKRVENRFADVPTAVLHSQMAAGKRTQDYLRAMLGQAKLVIGTRLAVFTPMDDVGLIVVDEEHDGSFKQDNELRYHARDLAVWRAKQGGCPIILGSATPSLESWHKAQSGAYRLLQLTERAHTAAQLPQVDILNVGRLKLDNGFSPQALQLLKQNFEAGGMSLVYLNRRGFAPALFCGDCGYTFGCPNCSAKMVLHQRARQLRCHHCDHREPIPYKCPDCGNQDLTAVGHGTQRVEETLRTFLPKAAVVRVDRDSTAHKNDWADLYRRIADNKIDILVGTQMLAKGHDFARLNLVIVLNADGSLYSADFRAPERLFAELMQVSGRAGRADKPGKVLIQTQLPEHPVFAAVKAQDYAVFAENELNERQMFAMPPFGFQTAVRADAPRVADAMEFLNAAKETLAPLLPESVSQFGAAPMLMVRLAERERAQIFLESPSRQDLHRAVSLWAQVLQQNRDGKIRWSVDVDPQEAEGHHHHHH	not soluble
MSLIYQTPDALDLQLDRIPSLPPPRRVVLTTPTHFDVEYVINPHMSENVGAVNTDVAWQQWKALRAAYTALDHTPVLVNGQSGLPDMVFCANQTLPFYDPASDSKGVVLSRMHSEQRADEVPYYARFFEEEGYAVDTLPEDLDADFEGMGDALWHPGHHLLWGGYGYRTSPEAYEALGDLLDVPIVALRLVDPDYYHLDTCLCPLDARHALVAPEAFDDAGRALIDALFETVIEVPDHEARHQFACNAHCPDGAHVLIQEGCEGTNAQLRNHDFVPVELDTSEFMKSGGSVFCMKQMIWEGHHHHHH	soluble
MSLKAAVLKNYGTLPEYQEFPEPKPKNYDELLVTPIASSVKRLDVIRAAGKHYTKFSELPAVMGMDGVAKLDNNSRVYAMGITGMMAEKALIDQRTMTVLPDGLDAGLAAALPNALIGSDLALLERGKIKTGDVVFINGATGLTGSLAVQMAKLRGAKRVIVTGRDPIKLQHLKDLGAYLTITTNQPDNSFVKELINAYNQSPFNLILDYLWGHPAELIIEALRRIRFLNSLKYISIGSLAGEGISVPSQLLRSKDLELIGSGIGSLDPNAVQVYMQKHLTEIFDYANQGKLSMELKSFPLDKISSAWISAPAVITIEGHHHHHH	not soluble
MSLKDICLKVFGDYACFTRPEMKVERVSYDIITPSAARAIFEAILWKPAIRWRVTKIEVLKPIRWISVRRNEVGAVASVRTAQTAMQAGRGDLGLYIEEERQQRAGLFLREVAYRLHARCEPTDRKGEQESPDKFLAMFHRRATNGQCFNQPYLGCREFAAHFEPVTNLDAAMADEPPITETRDLGWMLHDIDFANGIQPKFFRAHMQQGVIRVPEWNSEGVKGEGHHHHHH	soluble
MSLKDLQKYQGIIPAFYACYDDKGDICPERVKALTNYFIDKGVQGLYVNGSSGECIYQSVADRKLVLENVMSVAKGKLTVIAHVACNNTKDSVELAMHAEAIGVDAIAAIPPIYFRLPEYAIADYWNTISQAAPQTDFIIYNIPQLAGVALTSDLYRKMLQNPQVIGVKNSSMPVQDIQNFVAIGGENHIVFNGPDEQFLGGRLMGAAAGIGGTYGVMPELYLTLNQLIVDKDLEKARELQFTINDIITKLCSGHGNMYAVIKAVLEINEQLTIGSVRLPLASVTEEDKPIIKEAAEEGHHHHHH	soluble
